Article PMC7046147, “Impaired DNA-binding affinity of novel PAX6 mutations”

Experiments:
Assay in all cases: ITC; ITC (iTC200) at 25 °C in buffer C (composition not given; protein stored in 25 mM Hepes pH 7.5, 150 mM NaCl, 5 mM b-ME); 20 uM protein in cell, 200 uM DNA in syringe, one-site model
PAX6 PD G72S = PAX6 PD G72S (human, UniProt P26367 4-136, G72S); details: protein: recombinant
PAX6 paired domain WT = PAX6 paired domain WT (human, UniProt P26367 4-136); details: protein: recombinant, tags: N-terminal His6 removed by TEV
PAX6 PD S74G = PAX6 PD S74G (human, UniProt P26367 4-136, S74G); details: protein: recombinant
PAX6 PD G64V = PAX6 PD G64V (human, UniProt P26367 4-136, G64V); details: protein: recombinant
PAX6 PD G72C = PAX6 PD G72C (human, UniProt P26367 4-136, G72C); details: protein: recombinant, tags: N-terminal His6 removed by TEV
PAX6 PD G73D = PAX6 PD G73D (human, UniProt P26367 4-136, G73D); details: protein: recombinant
PAX6 PD P76R = PAX6 PD P76R (human, UniProt P26367 4-136, P76R); details: protein: recombinant; 5' overhang 2 nt on each strand (AA/TT), 24 bp
[1] = 5' overhang 2 nt on each strand (AA/TT), 24 bp

Chain of PAX6 PD G64V (P26367 4-136 G64V): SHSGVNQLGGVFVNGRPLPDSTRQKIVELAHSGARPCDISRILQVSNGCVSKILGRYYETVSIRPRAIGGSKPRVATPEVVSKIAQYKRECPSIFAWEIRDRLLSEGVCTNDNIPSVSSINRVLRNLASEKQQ
Chain of PAX6 PD G73D (P26367 4-136 G73D): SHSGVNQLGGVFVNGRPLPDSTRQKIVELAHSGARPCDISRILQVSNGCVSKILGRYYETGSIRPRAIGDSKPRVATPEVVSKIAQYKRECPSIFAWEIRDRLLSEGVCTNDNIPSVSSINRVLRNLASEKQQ
Chain of PAX6 PD G72S (P26367 4-136 G72S): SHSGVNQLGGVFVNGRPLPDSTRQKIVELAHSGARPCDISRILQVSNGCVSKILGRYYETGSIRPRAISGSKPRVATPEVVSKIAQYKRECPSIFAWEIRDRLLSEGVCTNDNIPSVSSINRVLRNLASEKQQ
Chain of PAX6 PD S74G (P26367 4-136 S74G): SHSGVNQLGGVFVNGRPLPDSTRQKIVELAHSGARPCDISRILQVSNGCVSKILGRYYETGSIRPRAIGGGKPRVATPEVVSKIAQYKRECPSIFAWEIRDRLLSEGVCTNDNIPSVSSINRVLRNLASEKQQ
Chain of PAX6 PD G72C (P26367 4-136 G72C): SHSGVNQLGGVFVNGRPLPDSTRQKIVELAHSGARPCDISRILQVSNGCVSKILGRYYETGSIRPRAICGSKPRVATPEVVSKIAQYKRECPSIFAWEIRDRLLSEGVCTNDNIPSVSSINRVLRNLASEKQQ
Chain of PAX6 paired domain WT (P26367 4-136): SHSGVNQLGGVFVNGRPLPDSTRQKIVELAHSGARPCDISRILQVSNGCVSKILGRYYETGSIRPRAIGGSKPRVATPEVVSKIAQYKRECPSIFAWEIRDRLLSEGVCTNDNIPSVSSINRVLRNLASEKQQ
Chain of PAX6 PD P76R (P26367 4-136 P76R): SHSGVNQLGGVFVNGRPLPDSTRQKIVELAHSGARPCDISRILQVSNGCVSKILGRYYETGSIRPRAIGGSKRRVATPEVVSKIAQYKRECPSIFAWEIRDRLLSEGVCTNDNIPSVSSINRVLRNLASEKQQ

B1: P6CON (dsDNA)
DNA 1: AAATTTTCACGCTTGAGTTCACAGCT
DNA 2: AGCTGTGAACTCAAGCGTGAAAATTT
- Kd (PAX6 PD G72S; blunt): 943 ± 37 nM
- Kd (PAX6 paired domain WT; blunt): 925 ± 47 nM
- Kd (PAX6 PD S74G; blunt): 1040 ± 45 nM
- Kd (PAX6 PD G64V; blunt): 1290 ± 78 nM
- Kd (PAX6 PD G72C; blunt): 1410 ± 110 nM
- Kd (PAX6 PD G73D; blunt): 961 ± 48 nM

B2: P6B (dsDNA)
DNA 1: AAGCATTTTCACGCATGAGTGCACAG
DNA 2: TTCTGTGCACTCATGCGTGAAAATGC
- Kd (PAX6 PD G72S; [1]): 1200 ± 130 nM
- Kd (PAX6 PD P76R): 740 ± 93 nM
- Kd (PAX6 paired domain WT; [1]): 411 ± 68 nM
- Kd (PAX6 PD S74G; [1]): 699 ± 180 nM
- Kd (PAX6 PD G64V; [1]): 2520 ± 1020 nM
- Kd (PAX6 PD G72C; [1]): 579 ± 370 nM
- Kd (PAX6 PD G73D; [1]): 489 ± 128 nM

B3: CD19 A-ins (dsDNA)
DNA 1: GAATGGGGCACTGAGGCGTGACCACCGC
DNA 2: GCGGTGGTCACGCCTCAGTGCCCCATTC
- Kd (PAX6 PD G72S; blunt): 980 ± 43 nM
- Kd (PAX6 paired domain WT; blunt): 952 ± 78 nM
- Kd (PAX6 PD S74G; blunt): 943 ± 31 nM
- Kd (PAX6 PD G64V; blunt): 2170 ± 162 nM
- Kd (PAX6 PD G72C; blunt): 5020 ± 360 nM
- binding result (PAX6 PD G73D; blunt): no binding
